Measured values taken from patent US20130210108.

B1: PA3529 protein (2-Cys peroxiredoxin of Pseudomonas aeruginosa PAO1), His-tagged, non-irradiated or gamma/UV-irradiated (protein)
chain: MSVLVGKKAPDFNVAAVLGNGEIVESFTLSEAIKGKYGLVFFYPLDFTFVCPSELIALDHRIPEFQARNVEVIGVSIDSHFTHNAWRNTPVDKGGIGAVKYTLAADTKHEIAKAYDVESDGGVAFRGAFLIDKEGVVRSQIVNDLPLGRNMDELLRLVDALQFHEEHGEVCPANWKKGDKGMTASPEGVAKYLAENASKL
B2: PP1084 protein (3-Cys peroxiredoxin of Pseudomonas putida KT2440), His-tagged, non-irradiated or gamma-irradiated (protein)
chain: MSVLVGKKAPDFTVPAVLGNGEIVDSFNLASAIKGKYGLVFFYPLDFTFVCPSELIALDNRIPDFQARNVEVIGVSIDSHFTHNAWRNTPVNNGGIGQVKYTLAADMTHEICKAYDVESEGGVAFRGAFLIDTNGVVRSQIVNDLPLGRNMDELLRLVDALQFHEEHGEVCPANWKKGDKGMNASPEGVAAYLSENAGKL

Biological target: malate dehydrogenase (MDH)

Row | Protein | MDH aggregation at 43 C for 15 minutes, PaPrx:MDH 1:1 (molecular chaperone activity after UV irradiation) | chaperone activity against the non-irradiated group | increase rate of OD650nm of MDH heated at 43 C (holdase chaperone activity)
1 | B1 | as the UV irradiation time increased, the molecular chaperone activity increased regularly | Chaperone activity of Prx protein was three-fold increased by gamma irradiation at 15˜30 kGy, compared with the non-irradiated group | the lowest OD was observed at 30 kGy, indicating that chaperone activity was highest at 30 kGy
2 | B2 | – | Chaperone activity of Prx protein was three-fold increased by gamma irradiation at 15˜30 kGy, compared with the non-irradiated group | the lowest OD was observed at 30 kGy, indicating that chaperone activity was highest at 30 kGy
